Patent US9120865B2, “T cell epitopes of the Cyn d 1 allergen from bermuda grass pollen” (Circassia Limited, priority 2001, dated 2015)

Legend:
[1] = tested on: oligoclonal T cell blasts from Bermuda grass pollen-specific T cell lines; assay: Oligoclonal T cell proliferation assay (3HTdR incorporation); format: cell-based, human; conditions: for number of patients in whom the peptide elicited proliferation: 13 Cyn d 1-reactive patients, SI≧2.5 considered significant
Source text: Bermuda grass pollen-specific T cell lines were isolated with the use of our well-established methods for thegeneration of allergen-specific T cell populations (O'Hehir, R. E., Young, D. B., Kay, A. B., Lamb, J. R., Immunology, 62:635-640, 1987; O'Hehir, R. E., Askonas, B. A., Lamb, J. R., Vol 3, Heidelberg:Springer-Verlag, p 120-138, 1993). Briefly, PBMC were separated from heparinized venous blood by density gradient centrifugation over Ficoll Paque (Pharmacia, Sweden). PBMC were initially stimulated for 1 week in 24-well plates (Costar, USA; 2.5×10^6 PBMC/well) with a previously determined optimal concentration of Bermuda grass pollen extract (50 μg/ml) for 7 days in complete medium (RPMI-1640 medium, Gibco Life Technologies, supplemented with 2 mmol/L L-glutamine, 100 IU/ml penicillin/streptomycin, and 5% screened, heat inactivated human AB^+ serum, Sigma Chemical Company, USA) at 37° C., 5% CO2. A two week line was established by restimulating the T cell blasts with Bermuda grass pollen extract in the presence of irradiated (3000 rads) autologous PBMC every 7 days, with the addition of interleukin-2 (5% vol/vol; Lymphocult-TLF, Biotest Folex, Frankfurt, Germany) every 3-4 days. In all experiments, T cells were rested for 7 days after the last addition of antigen and antigen presenting cells (APC) before use in proliferation assays. We have previously shown that CD4+ T cells are preferentially expanded in these cultures.
Oligoclonal T cell blasts (5×10^4/well) from the Bermuda grass pollen-specific T cell lines were stimulated in triplicate with Bermuda grass pollen extract (25, 50, 100 μg/ml), purified Cyn d 1 (2.5, 5, 10 μg/ml) and the Cyn d 1 peptides (1, 10 μg/ml) in the presence of an equal number of irradiated autologous PBMC as APC for 72 hours in 96-well round bottom plates (ICN Biomedicals, USA). Cultures of T cells and APC in the absence of antigen or with added IL-2 were included as negative and positive controls respectively. After 72 hours, cultures were pulsed with 1 μCi/well of tritiated methyl thymidine (^3HTdR; Amersham, USA) and harvested 16 hours later onto glass fibre filters. Proliferation as correlated with ^3HTdR incorporation was measured by liquid scintillation spectroscopy. Results are expressed as change in mean counters per minute above background (Acpm) or as a stimulation index (SI, cpm of antigen stimulated T cells divided by cpm of unstimulated T cells) to allow easier comparison between subjects with different background incorporation. Stimulation index values ≧2.5 are considered significant. Production of IL-5 and IFN-γ by Bermuda grass pollen-specific oligoclonal T cells

[2] = tested on: IL-5; assay: Production of IL-5 by Bermuda grass pollen-specific oligoclonal T cells (sandwich ELISA of culture supernatants); format: cell-based, human; conditions: pre-SIT; supernatants at 48 hours
Procedure: (§1) Production of IL-5 and IFN-γ by cultured oligoclonal T cells was assessed by harvesting supernatants from proliferation assays at 48 hours after stimulation, with replacement by an equal volume of complete medium, and measurement of cytokine levels by sandwich ELISA. White 96-well maxisorp ELISA plates (Nalgene NUNC, Denmark) were coated with rat anti-mouse/human IL-5 (PharMingen, USA) or mouse anti-human IFN-γ (endogen, USA) at 2 μg/ml and incubated overnight at 4° C. The plates were washed with 0.5% Tween 20/PBS and blocked with 1% BSA/PBS for 1 hour at room temperature. The plates were washed again and the culture supernatants from pooled triplicate assays added in duplicate to the wells. A standard curve was established using known concentrations of human recombinant IL-5 (PharMingen, USA) and IFN-γ (Endogen, USA). The plates were incubated with either 1 μg/ml biotinylated rat anti-human IL-5 (PharMingen, USA) or 0.5 μg/ml biotinylated mouse anti-human IFN-γ (Endogen, USA) for 1 hour at room temperature. After washing the plates, streptavidin-biotinylated horseradish peroxidase (Amersham, USA), at a dilution of 1:2000, was added to each well and incubated for 45 minutes at room temperature. […] The plates were read on a LumiCount microplate glow luminometer (Packard Instrument Company, USA). […]

[3] = tested on: IFN-γ; assay: Production of IFN-γ by Bermuda grass pollen-specific oligoclonal T cells (sandwich ELISA of culture supernatants); format: cell-based, human; conditions: pre-SIT; supernatants at 48 hours
Procedure: as §1

[4] = tested on: oligoclonal house dust mite-reactive CD4+ T cells; assay: Mitogenicity check with irradiated PBMC; format: cell-based, human; conditions: data not shown
Procedure: (§2) Antigens • (i) Bermuda grass pollen. • Bermuda grass pollen was purchased from Greer Laboratories Inc. (Lenoir, N.C., USA) as dry, non-defatted pollen. One gram of pollen was extracted in 5 ml of 1 mM NH4HCO3 overnight at 4° C. on a rotating wheel. After centrifugation, the supernatant was dialyzed against PBS overnight. The extract was filtered through a 0.2 μm filter. The protein content of the extract was determined using the Bio-Rad Microassay (Bio-Rad, USA). • (ii) Cyn d 1. • Cyn d 1 was generated by the Bermuda grass pollen extract first undergoing an 80% ammonium sulphate precipitation. […] The protein content was determined using the Bio-Rad Microas say. • (iii) Peptides. • Synthetic peptides (20-mers overlapping by 11 or, for the two N-terminal peptides, 15 residues) spanning the entire length of the Cyn d 1 molecule were purchased from Mimotopes (Clayton, Australia; FIG. 2) (CD1 isoform, Smith et al., 1996, supra). • (iv) Mitogenicity and Toxicity. • Mitogenicity of Bermuda grass pollen, Cyn d 1 and Cyn d 1 peptides was excluded by culturing with oligoclonal house dust mite-reactive CD4^+ T cells in the presence of irradiated peripheral blood mononuclear cells (PBMC), and toxicity was excluded by co-culture of antigens with the HDM-reactive T cells in the presence of IL-2 (data not shown).

[5] = tested on: HDM-reactive T cells; assay: Toxicity check by co-culture of antigens in the presence of IL-2; format: cell-based, human; conditions: data not shown
Procedure: as §2

[6] = tested on: IgE; conditions: sera from Bermuda grass pollen-allergic patients; cited from earlier work

## EGGAHLVQDDVIPANWKPDT (human) [Cyn d 1(217-236), synthetic 20-mer peptide of Cyn d 1, residues 217-236]
[1]; pre-immunotherapy
  number of patients in whom the peptide elicited proliferation: 8 patients

## LVQDDVIPANWKPDTVYTSK (human) [Cyn d 1(222-241), synthetic 20-mer peptide of Cyn d 1, residues 222-241]
[1]; pre-immunotherapy
  number of patients in whom the peptide elicited proliferation: 6 patients

## MKSSWGAIWRIDPKKPLKGP (human) [Cyn d 1(190-209), synthetic 20-mer peptide of Cyn d 1, residues 190-209]
[1]; pre-immunotherapy
  number of patients in whom the peptide elicited proliferation: 6 patients

## PKDSDEFIPMKSSWGAIWRI (human) [Cyn d 1(181-200), synthetic 20-mer peptide of Cyn d 1, residues 181-200]
[1]; pre-immunotherapy
  number of patients in whom the peptide elicited proliferation: 6 patients

## SGKAFGAMAKKGQEDKLRKA (human) [Cyn d 1(109-128), synthetic 20-mer peptide of Cyn d 1, residues 109-128]
[1]; pre-immunotherapy
  number of patients in whom the peptide elicited proliferation: 8 patients

B1: Cyn d 1: major allergen protein of Bermuda grass pollen, purified from the pollen extract by ammonium sulphate precipitation and G-75 Sephadex (protein)
chain: AIGDKPGPNITATYGNKWLEAKATFYGSNPRGAAPDDHGGACGYKDVDKPPFDGMTACGNEPIFKDGLGCGACYEIKCKEPVECSGEPVLVKITDKNYEHIAAYHFDLSGKAFGAMAKKGQEDKLRKAGELTLQFRRVKCKYPSGTKITFHIEKGSNDHYLALLVKYAAGDGNIVAVDIKPKDSDEFIPMKSSWGAIWRIDPKKPLKGPFSIRLTSEGGAHLVQDDVIPANWKPDTVYTSKLQFGA
modifications: human
notes: major allergen protein of Bermuda grass pollen, purified from the pollen extract by ammonium sulphate precipitation and G-75 Sephadex
[1]; following SIT
  change in proliferative responses / recognition: marked decrease
[1]; following one year of SIT
  patients with decreased proliferation: 11/13
[1]; pre-immunotherapy, 2-week T cell lines from 14 patients
  patients whose Bermuda grass pollen-specific T cell lines showed proliferative T cell responses: 13/14
[2]
  IL-5 secreted in response to stimulation: High levels
[3]
  IFN-γ secreted in response to stimulation: High levels
[4]
  Mitogenicity: excluded
[5]
  toxicity: excluded
[6]
  predominant humoral recognition: > 76%
